Results from US20090149339A1 (published 2009).
Ends that are not written are not given here. * marks the point of attachment. Biotin = O=C1N[C@H]2[C@H](CS[C@H]2CCCCC(=O)*)N1

Legend:
[1] = molecular target: T1, GST-PSD95 PDZ domain fusion protein (human post-synaptic density protein 95 AA387-724; PDZ domains 1-3 of 3) (human, UniProt P08515 1-218 = GST); assay: A assay
[2] = molecular target: T2, GST-NeDLG PDZ domain fusion protein (presynaptic protein sao102, neuroendocrine-dlg; PDZ domains 1-2 of 3) (UniProt P08515 1-218 = GST); assay: G assay
T2 construct: also called NeDLG1

[3] = molecular target: T3, GST-TAX43 PDZ domain fusion protein (human tax interaction protein 43 AA15-85; PDZ domain 1 of 1) (human, UniProt P08515 1-218 = GST); assay: A/G assays
T3 construct: also called TX 43

[4] = molecular target: T4, GST-RGS12 PDZ domain fusion protein (human regulator of G-protein signalling 12 AA35-103; PDZ domain 1 of 1) (human, UniProt P08515 1-218 = GST); assay: A/G assays
T4 construct: also called RSG12

[5] = molecular target: GST-DVL1 PDZ domain fusion protein (human dishevelled segment polarity protein homolog AA248-340); PDZ domain … (human, UniProt P08515 1-218 = GST); assay: A/G assays
[6] = molecular target: T5, GST-41.8 kD PDZ domain fusion protein (hypothetical 41.8 kD protein AA4-85; PDZ domain 1 of 1) (UniProt P08515 1-218 = GST); assay: A/G assays
T5 construct: also called hypoth

[7] = molecular target: GST-TIAM1 PDZ domain fusion protein (T-lymphoma invasion and metastasis inducing protein 1 AA1001-1088); PDZ 1 … (UniProt P08515 1-218 = GST); assay: A/G assays
[8] = molecular target: T6, GST-MPP2 PDZ domain fusion protein (maguk p55 subfamily member 2 (DLG2) AA185-273; PDZ domain 1 of 1) (UniProt P08515 1-218 = GST); assay: A/G assays
T6 construct: also called MMP2

[9] = molecular target: GST-prIL16 PDZ domain fusion protein (putative interleukin 16 precursor AA170-383; PDZ domains 1-2 of 2) (UniProt P08515 1-218 = GST); assay: A/G assays
[10] = molecular target: T7, GST-TAX2 PDZ domain fusion protein (human tax interaction protein 2 AA54-140; PDZ domain 1 of 1) (human, UniProt P08515 1-218 = GST); assay: A/G assays
T7 construct: also called TX 2

[11] = molecular target: GST-AF6 PDZ domain fusion protein (af-6 protein AA985-1077; PDZ domain 1 of 1) (UniProt P08515 1-218 = GST); assay: A/G assays
[12] = molecular target: GST-PTN-4 PDZ domain fusion protein (protein-tyrosine phosphatase meg1 AA774-862; PDZ domain 1 of 1) (UniProt P08515 1-218 = GST); assay: A/G assays
[13] = molecular target: T8, GST-KIAA0316 PDZ domain fusion protein (KIAA0316 AA197-284; PDZ domain 1 of 1) (UniProt P08515 1-218 = GST); assay: A/G assays
T8 construct: also called K316

[14] = molecular target: T9, GST-KIAA0303 PDZ domain fusion protein (KIAA0303 AA652-742; PDZ domain 1 of 1) (UniProt P08515 1-218 = GST); assay: A/G assays
T9 construct: also called K303

[15] = molecular target: T10, GST-SYN1a PDZ domain fusion protein (alpha1-syntrophin AA96-189; PDZ domain 1 of 1) (UniProt P08515 1-218 = GST); assay: A/G assays
T10 construct: also called SYN 1 alpha; SYNTR 1 alpha

[16] = molecular target: T11, GST-KIAA0559 PDZ domain fusion protein (KIAA0559 AA766-870; PDZ1 of 1) (UniProt P08515 1-218 = GST); assay: A/G assays
T11 construct: also called K559

[17] = molecular target: GST-MPP1 PDZ domain fusion protein (55 Kd erythrocyte membrane protein AA101-186; PDZ domain 1 of 1) (UniProt P08515 1-218 = GST); assay: A/G assays
[18] = molecular target: T12, GST-TAX40 PDZ domain fusion protein (human tax interaction protein 40 AA35-137; PDZ domain 1 of 1) (human, UniProt P08515 1-218 = GST); assay: A/G assays
T12 construct: also called TX 40

[19] = molecular target: T13, GST-CASK PDZ domain fusion protein (CASK AA495-584; PDZ domain 1 of 1) (mouse, UniProt P08515 1-218 = GST); assay: A/G assays
T13 construct: also called mCASK

[20] = molecular target: T14, GST-CBP PDZ domain fusion protein (Cytohesin binding protein HE AA85-175; PDZ domain 1 of 1) (UniProt P08515 1-218 = GST); assay: A/G assays
T14 construct: also called Prot

[21] = molecular target: GST-NOS1 PDZ domain fusion protein (human neuronal nitric oxide synthase; PDZ domain 1 of 1) (human, UniProt P08515 1-218 = GST); assay: A/G assays
[22] = molecular target: T15, GST-TAX33 PDZ domain fusion protein (tax interaction protein 33 AA73-162; PDZ domain 1 of 1) (UniProt P08515 1-218 = GST); assay: A/G assays
T15 construct: also called TX33

[23] = molecular target: GST-LIM PDZ domain fusion protein (Human LIM protein AA29-112; PDZ domain 1 of 1) (human, UniProt P08515 1-218 = GST); assay: A/G assays
[24] = molecular target: GST-MINT3 PDZ domain fusion protein (human MINT3 AA11-52; PDZ domain 1 of 1) (human, UniProt P08515 1-218 = GST); assay: A/G assays
[25] = molecular target: GST-LIMK2 PDZ domain fusion protein (human LIM domain kinase 2 AA185-275; PDZ domain 1 of 1) (human, UniProt P08515 1-218 = GST); assay: A/G assays
[26] = molecular target: T1, GST-PSD95 PDZ domain fusion protein …; assay: A/G assays
[27] = molecular target: T2, GST-NeDLG PDZ domain fusion protein …; assay: A/G assays
[28] = molecular target: T5, GST-41.8 kD PDZ domain fusion protein …; assay: A and G assays

T5 sequence (P08515 1-218, tags or fused parts left off): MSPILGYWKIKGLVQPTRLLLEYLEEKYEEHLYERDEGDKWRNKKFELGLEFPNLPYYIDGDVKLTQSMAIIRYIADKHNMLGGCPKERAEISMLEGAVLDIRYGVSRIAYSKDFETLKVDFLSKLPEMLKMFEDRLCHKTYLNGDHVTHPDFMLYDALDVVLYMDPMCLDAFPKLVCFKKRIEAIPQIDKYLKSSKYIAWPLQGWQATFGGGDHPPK
T14 sequence (P08515 1-218, tags or fused parts left off): as above
T15 sequence (P08515 1-218, tags or fused parts left off): as above
T2 sequence (P08515 1-218, tags or fused parts left off): as above
GST-NOS1 PDZ domain fusion protein (human neuronal nitric oxide synthase; PDZ domain 1 of 1), sequence (P08515 1-218, tags or fused parts left off): as above
GST-PTN-4 PDZ domain fusion protein (protein-tyrosine phosphatase meg1 AA774-862; PDZ domain 1 of 1), sequence (P08515 1-218, tags or fused parts left off): as above
GST-LIM PDZ domain fusion protein (Human LIM protein AA29-112; PDZ domain 1 of 1), sequence (P08515 1-218, tags or fused parts left off): as above
T12 sequence (P08515 1-218, tags or fused parts left off): as above
T6 sequence (P08515 1-218, tags or fused parts left off): as above
GST-AF6 PDZ domain fusion protein (af-6 protein AA985-1077; PDZ domain 1 of 1), sequence (P08515 1-218, tags or fused parts left off): as above
T10 sequence (P08515 1-218, tags or fused parts left off): as above
T4 sequence (P08515 1-218, tags or fused parts left off): as above
T7 sequence (P08515 1-218, tags or fused parts left off): as above
GST-prIL16 PDZ domain fusion protein (putative interleukin 16 precursor AA170-383; PDZ domains 1-2 of 2), sequence (P08515 1-218, tags or fused parts left off): as above
GST-LIMK2 PDZ domain fusion protein (human LIM domain kinase 2 AA185-275; PDZ domain 1 of 1), sequence (P08515 1-218, tags or fused parts left off): as above
T3 sequence (P08515 1-218, tags or fused parts left off): as above
T1 sequence (P08515 1-218, tags or fused parts left off): as above
T11 sequence (P08515 1-218, tags or fused parts left off): as above
GST-MPP1 PDZ domain fusion protein (55 Kd erythrocyte membrane protein AA101-186; PDZ domain 1 of 1), sequence (P08515 1-218, tags or fused parts left off): as above
T13 sequence (P08515 1-218, tags or fused parts left off): as above
T9 sequence (P08515 1-218, tags or fused parts left off): as above

## Biotin-QATSRNGHSARQHVVADTEL [CD34 C-terminal PL peptide AA7L, biotinylated]
[1]
  binding result: binds
[2]
  binding result: binds
[3]
  binding result: no binding
[4]
  binding result: no binding
[5]
  binding result: no binding
[6]
  binding result: no binding
[7]
  binding result: no binding
[8]
  binding result: no binding
[9]
  binding result: no binding
[10]
  binding result: no binding
[11]
  binding result: no binding
[12]
  binding result: no binding
[13]
  binding result: no binding
[14]
  binding result: no binding
[15]
  binding result: no binding
[16]
  binding result: no binding
[17]
  binding result: no binding
[18]
  binding result: no binding
[19]
  binding result: no binding
[20]
  binding result: no binding
[21]
  binding result: no binding
[22]
  binding result: no binding
[23]
  binding result: no binding
[24]
  binding result: no binding
[25]
  binding result: no binding

## Biotin-HKAEIHAQPSDKERLTSDA [CD49F (Aform, alpha 6) C-terminal PL peptide AA12L, biotinylated]
[3]
  binding result: no binding
[4]
  binding result: no binding
[5]
  binding result: no binding
[7]
  binding result: no binding
[8]
  binding result: no binding
[9]
  binding result: no binding
[10]
  binding result: no binding
[11]
  binding result: no binding
[26]
  binding result: no binding
[12]
  binding result: no binding
[27]
  binding result: no binding
[13]
  binding result: no binding
[14]
  binding result: no binding
[15]
  binding result: no binding
[16]
  binding result: no binding
[17]
  binding result: no binding
[18]
  binding result: no binding
[19]
  binding result: no binding
[20]
  binding result: no binding
[21]
  binding result: no binding
[22]
  binding result: no binding
[23]
  binding result: no binding
[24]
  binding result: no binding
[25]
  binding result: no binding
[28]
  binding result: binds

## Biotin-ISKATPALPTVSISSSAEV (also called AA1L-R) [CLASP-1 C-terminal PL peptide AA1L, biotinylated]
[1]
  binding result: binds
[2]
  binding result: binds
[3]
  binding result: no binding
[4]
  binding result: no binding
[5]
  binding result: no binding
[6]
  binding result: no binding
[7]
  binding result: no binding
[8]
  binding result: no binding
[9]
  binding result: no binding
[10]
  binding result: no binding
[11]
  binding result: no binding
[12]
  binding result: no binding
[13]
  binding result: no binding
[14]
  binding result: no binding
[15]
  binding result: no binding
[16]
  binding result: no binding
[17]
  binding result: no binding
[18]
  binding result: no binding
[19]
  binding result: no binding
[20]
  binding result: no binding
[21]
  binding result: no binding
[22]
  binding result: no binding
[23]
  binding result: no binding
[24]
  binding result: no binding
[25]
  binding result: no binding

## Biotin-SVFSIPTLWSPWPPSSSSQL (also called CD3-eta) [CD3n C-terminal PL peptide AA4L, biotinylated]
[1]
  binding result: binds
[3]
  binding result: no binding
[4]
  binding result: no binding
[5]
  binding result: no binding
[7]
  binding result: no binding
[8]
  binding result: no binding
[9]
  binding result: no binding
[10]
  binding result: no binding
[11]
  binding result: no binding
[12]
  binding result: no binding
[27]
  binding result: no binding
[13]
  binding result: no binding
[14]
  binding result: no binding
[15]
  binding result: no binding
[16]
  binding result: no binding
[17]
  binding result: no binding
[18]
  binding result: no binding
[19]
  binding result: no binding
[20]
  binding result: no binding
[21]
  binding result: no binding
[22]
  binding result: no binding
[23]
  binding result: no binding
[24]
  binding result: no binding
[25]
  binding result: no binding
[28]
  binding result: binds
